{"source": "patent US9499613B2", "about": "“Notch1 receptor binding agents and methods of use thereof” (OncoMed Pharmaceuticals, Inc., priority 2008, dated 2016)", "molecules": {"B1": {"name": "52M51-H4: humanized 52M51 heavy chain variant (SEQ ID NO:22), tested with the murine 52M51 light chain (antibody)", "heavy": "QVQLVQSGAEVKKPGASVKISCKVSGYTLRGYWIEWVRQAPGKGLEWIGQILPGTGRTNYNEKFKGRVTMTADTSTDTAYMELSSLRSEDTAVYYCARFDGNYGYYAMDYWGQGTTVTVSSASTKGPSVFPLAPCSRSTSESTAALGCLVKDYFPEPVTVSWNSGALTSGVHTFPAVLQSSGLYSLSSVVTVPSSNFGTQTYTCNVDHKPSNTKVDKTVERKCCVECPPCPAPPVAGPSVFLFPPKPKDTLMISRTPEVTCVVVDVSHEDPEVQFNWYVDGVEVHNAKTKPREEQFNSTFRVVSVLTVVHQDWLNGKEYKCKVSNKGLPAPIEKTISKTKGQPREPQVYTLPPSREEMTKNQVSLTCLVKGFYPSDIAVEWESNGQPENNYKTTPPMLDSDGSFFLYSKLTVDKSRWQQGNVFSCSVMHEALHNHYTQKSLSLSPGK", "light": "QAVVTQESALTTSPGETVTLTCRSSTGAVTTSNYANWVQEKPDHLFTGLIGGTNNRAPGVPARFSGSLIGDKAALTITGAQTEDEAIYFCALWYSNHWVFGGGTKLTVLGQPKSSPSVTLFPPSSEELETNKATLVCTITDFYPGVVTVDWKVDGTPVTQGMETTQPSKQSNNKYMASSYLTLTARAWERHSSYSCQVTHEGHTVEKSLSRADCS"}, "B2": {"name": "52M51H4L3: humanized variant of 52M51, heavy chain H4 and light chain L3; DNA deposited as ATCC PTA-9549 (antibody)", "heavy": "QVQLVQSGAEVKKPGASVKISCKVSGYTLRGYWIEWVRQAPGKGLEWIGQILPGTGRTNYNEKFKGRVTMTADTSTDTAYMELSSLRSEDTAVYYCARFDGNYGYYAMDYWGQGTTVTVSSASTKGPSVFPLAPCSRSTSESTAALGCLVKDYFPEPVTVSWNSGALTSGVHTFPAVLQSSGLYSLSSVVTVPSSNFGTQTYTCNVDHKPSNTKVDKTVERKCCVECPPCPAPPVAGPSVFLFPPKPKDTLMISRTPEVTCVVVDVSHEDPEVQFNWYVDGVEVHNAKTKPREEQFNSTFRVVSVLTVVHQDWLNGKEYKCKVSNKGLPAPIEKTISKTKGQPREPQVYTLPPSREEMTKNQVSLTCLVKGFYPSDIAVEWESNGQPENNYKTTPPMLDSDGSFFLYSKLTVDKSRWQQGNVFSCSVMHEALHNHYTQKSLSLSPGK", "light": "SGVDSQAVVTQEPSLTVSPGGTVTLTCRSSTGAVTTSNYANWFQQKPGQAPRTLIGGTNNRAPGVPARFSGSLLGGKAALTLSGAQPEDEAEYYCALWYSNHWVFGGGTKLTVLGQPKAAPSVTLFPPSSEELQANKATLVCLVSDFYPGAVTVAWKADGSPVKVGVETTKPSKQSNNKYAASSYLSLTPEQWKSHRSYSCRVTHEGSTVEKTVAPAECS"}, "B3": {"name": "52M51: murine monoclonal antibody to membrane proximal region of human Notch1; hybridoma ATCC PTA-9405; heavy SEQ ID NO:10, light SEQ ID NO:4 (antibody)", "heavy": "MEWTWVFLFLLSVTAGVHSQVQLQQSGAELMKPGASVKISCKAAGYTMRGYWIEWIKQRPGHGLEWIGQILPGTGRTNYNEKFKGKATFTADTSSNTANMQLSSLTSEDSAVYYCARFDGNYGYYAMDYWGQGSSVTVSSAKTTPPSVYPLAPGSAAQTNSMVTLGCLVKGYFPEPVTVTWNSGSLSSGVHTFPAVLQSDLYTLSSSVTVPSSPRPSETVTCNVAHPASSTKVDKKIVPRDCGCKPCICTVPEVSSVFIFPPKPKDVLTITLTPKVTCVVVDISKDDPEVQFSWFVDDVEVHTAQTQPREEQFNSTFRSVSELPIMHQDWLNGKEFKCRVNSAAFPAPIEKTISKTKGRPKAPQVYTIPPPKEQMAKDKVSLTCMITDFFPEDITVEWQWNGQPAENYKNTQPIMNTNGSYFVYSKLNVQKSNWEAGNTFTCSVLHEGLHNHHTEKSLSHSPGK", "light": "MAWISLILSLLALSSGAISQAVVTQESALTTSPGETVTLTCRSSTGAVTTSNYANWVQEKPDHLFTGLIGGTNNRAPGVPARFSGSLIGDKAALTITGAQTEDEAIYFCALWYSNHWVFGGGTKLTVLGQPKSSPSVTLFPPSSEELETNKATLVCTITDFYPGVVTVDWKVDGTPVTQGMETTQPSKQSNNKYMASSYLTLTARAWERHSSYSCQVTHEGHTVEKSLSRADCS", "modifications": "Synthetic heavy chain of antibody 52M51; Synthetic light chain of antibody 52M51"}}, "key": {"[1]": {"target": "T1, Notch1 (Homo sapiens, UniProt P46531)", "T1 sequence (P46531 19-2555)": "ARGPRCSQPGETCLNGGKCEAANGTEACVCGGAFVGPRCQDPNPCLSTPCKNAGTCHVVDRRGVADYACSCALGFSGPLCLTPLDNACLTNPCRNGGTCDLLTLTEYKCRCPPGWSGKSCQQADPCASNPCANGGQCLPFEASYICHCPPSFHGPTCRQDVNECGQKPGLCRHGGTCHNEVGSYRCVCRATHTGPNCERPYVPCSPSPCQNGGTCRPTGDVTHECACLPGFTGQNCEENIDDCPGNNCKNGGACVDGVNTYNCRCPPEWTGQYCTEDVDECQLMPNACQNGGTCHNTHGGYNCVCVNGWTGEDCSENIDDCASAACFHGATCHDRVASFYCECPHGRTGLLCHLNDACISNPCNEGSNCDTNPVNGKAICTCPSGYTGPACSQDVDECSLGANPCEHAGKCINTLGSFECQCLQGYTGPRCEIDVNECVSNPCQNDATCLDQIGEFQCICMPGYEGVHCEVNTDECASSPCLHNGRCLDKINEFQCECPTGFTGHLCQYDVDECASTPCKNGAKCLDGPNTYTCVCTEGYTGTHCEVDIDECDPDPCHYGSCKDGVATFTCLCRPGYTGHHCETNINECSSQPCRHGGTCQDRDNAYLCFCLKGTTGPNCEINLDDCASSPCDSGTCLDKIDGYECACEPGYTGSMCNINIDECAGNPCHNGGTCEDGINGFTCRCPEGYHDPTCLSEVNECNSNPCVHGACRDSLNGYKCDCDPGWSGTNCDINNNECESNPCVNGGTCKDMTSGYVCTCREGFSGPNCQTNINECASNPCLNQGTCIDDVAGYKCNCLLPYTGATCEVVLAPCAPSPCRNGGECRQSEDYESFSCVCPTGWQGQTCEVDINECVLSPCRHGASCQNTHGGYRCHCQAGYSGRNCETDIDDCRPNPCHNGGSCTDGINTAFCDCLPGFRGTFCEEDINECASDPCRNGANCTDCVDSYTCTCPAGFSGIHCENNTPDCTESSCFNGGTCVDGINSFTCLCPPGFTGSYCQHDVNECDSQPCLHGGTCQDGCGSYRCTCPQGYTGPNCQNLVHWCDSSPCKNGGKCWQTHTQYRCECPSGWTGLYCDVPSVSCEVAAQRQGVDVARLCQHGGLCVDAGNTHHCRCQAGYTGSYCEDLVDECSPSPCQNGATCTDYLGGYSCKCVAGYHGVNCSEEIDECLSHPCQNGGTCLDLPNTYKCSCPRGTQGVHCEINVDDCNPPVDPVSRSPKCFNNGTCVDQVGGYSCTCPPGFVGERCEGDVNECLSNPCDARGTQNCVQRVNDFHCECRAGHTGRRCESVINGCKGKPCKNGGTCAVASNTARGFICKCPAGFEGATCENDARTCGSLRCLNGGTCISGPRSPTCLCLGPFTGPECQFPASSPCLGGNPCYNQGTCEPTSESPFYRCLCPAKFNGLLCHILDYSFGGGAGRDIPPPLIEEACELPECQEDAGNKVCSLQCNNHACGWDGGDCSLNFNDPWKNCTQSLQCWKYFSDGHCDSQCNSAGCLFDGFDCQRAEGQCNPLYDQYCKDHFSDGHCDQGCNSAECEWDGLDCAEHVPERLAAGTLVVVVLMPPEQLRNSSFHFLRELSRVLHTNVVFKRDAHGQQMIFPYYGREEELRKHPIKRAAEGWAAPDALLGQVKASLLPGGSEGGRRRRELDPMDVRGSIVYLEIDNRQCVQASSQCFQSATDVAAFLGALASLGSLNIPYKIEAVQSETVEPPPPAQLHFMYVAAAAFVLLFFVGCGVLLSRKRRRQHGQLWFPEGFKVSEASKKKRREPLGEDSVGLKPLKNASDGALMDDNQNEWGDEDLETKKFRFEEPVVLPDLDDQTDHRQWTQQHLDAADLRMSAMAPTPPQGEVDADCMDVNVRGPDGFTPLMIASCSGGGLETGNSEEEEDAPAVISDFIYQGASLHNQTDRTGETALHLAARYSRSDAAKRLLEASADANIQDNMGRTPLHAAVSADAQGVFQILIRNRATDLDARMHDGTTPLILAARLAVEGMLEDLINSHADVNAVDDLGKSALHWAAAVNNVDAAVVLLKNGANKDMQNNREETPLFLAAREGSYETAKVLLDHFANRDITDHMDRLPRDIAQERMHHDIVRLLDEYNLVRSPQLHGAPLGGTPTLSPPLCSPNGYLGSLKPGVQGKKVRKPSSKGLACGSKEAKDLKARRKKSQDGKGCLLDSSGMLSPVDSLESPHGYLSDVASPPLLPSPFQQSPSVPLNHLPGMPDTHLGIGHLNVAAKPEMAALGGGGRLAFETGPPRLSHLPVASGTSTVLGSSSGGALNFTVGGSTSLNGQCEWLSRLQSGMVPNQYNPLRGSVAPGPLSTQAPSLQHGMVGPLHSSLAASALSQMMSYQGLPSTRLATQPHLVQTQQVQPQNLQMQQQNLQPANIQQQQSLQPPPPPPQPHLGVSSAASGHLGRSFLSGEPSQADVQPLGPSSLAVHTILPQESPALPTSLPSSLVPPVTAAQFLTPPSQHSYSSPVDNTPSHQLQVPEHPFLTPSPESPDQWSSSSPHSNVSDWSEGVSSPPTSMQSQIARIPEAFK", "test": "ELISA of conditioned media from cotransfected HEK 293 cells for Notch1 binding activity", "settings": "candidate humanized chains cotransfected into HEK 293 cells", "method": "The functionality of each candidate variant humanized heavy and light chain was tested by cotransfection into mammalian cells. Each of the nine candidate humanized 52M51 heavy chains described above was cotransfected into HEK 293 cells with the murine 52M51 light chain cDNA, and conditioned media was assayed by ELISA for Notch1 binding activity. […] This variant “52M51-H4” (SEQ ID NO:22) contains, in addition to murine CDRs, variation at 3 framework positions within the Vh framework, Kabat positions 20, 48, and 71 in comparison with an example human framework (e.g. IGHV1-24). The 52M51-H4 humanized heavy chain was then cotransfected into HEK293 cells with each of the eight candidate humanized light chains, and conditioned media was again assayed for antigen binding by ELISA. […] Variant 52M51-L3 contains, in addition to murine CDRs, variation at 1 framework position at Kabat position 49 in comparison to an example human framework (e.g., IGLV7-46). Two humanized variant antibodies, 52M51H4L3 and 52M51H4L4, were developed. 52M51H4L3, as encoded by DNA deposited with the ATCC, under the conditions of the Budapest Treaty on Oct. 15, 2008, and assigned designation number PTA-9549."}, "[2]": {"target": "T1, Notch1", "test": "hDLL4-fc-induced Notch reporter luciferase assay in Notch1-Hela cells", "assay_type": "cell-based", "design": "expressed in transfected cells; host or cells: HeLa (Notch1-Hela)", "settings": "plates coated with 200 ng/well hDLL4-fc, 48 hours after transfection", "method": "In certain embodiments, the ability of Notch1 receptor antibodies to block ligand-mediated Notch signaling was determined. In certain embodiments, HeLa cells engineered to overexpress Notch1 (Notch1-Hela) cultured in DMEM supplemented with antibiotics and 10% FCS were co-transfected with 1) pGL4 8×CBS firefly luciferase containing a Notch responsive promoter upstream of a firefly luciferase reporter gene to measure Notch signaling levels in response to DLL4 ligand; and 2) a Renilla luciferase reporter (Promega; Madison, Wis.) as an internal control for transfection efficiency. Transfected cells were added to cultures plates coated overnight with 200 ng/well of hDLL4-fc protein, and antibodies to Notch1 were then added to the cell culture medium. Forty-eight hours following transfection, luciferase levels were measured using a dual luciferase assay kit (Promega; Madison, Wis.) with firefly luciferase activity normalized to Renilla luciferase activity. The ability of antibodies to inhibit Notch1 pathway activation was thus determined."}, "[3]": {"target": "T1, Notch1", "test": "Western blot of Notch1 ICD formation after DLL4 stimulation of Notch1-Hela cells", "assay_type": "cell-based", "design": "expressed in transfected cells; host or cells: HeLa (Notch1-Hela)", "settings": "DLL4-fc coated wells, five hours", "method": "Cleavage of Notch receptors by furin, ADAM, and gamma-secretase results in formation of the Notch intracellular domain (ICD) that then triggers downstream Notch signaling in the nucleus. In certain embodiments, the ability of Notch1 receptor antibodies to block ligand-mediated receptor activation was determined by Western blot analysis. Notch1-Hela cells were grown in suspension culture in 293-SMII media (Gibco). Cultured cells were transferred to 96-well plates in which select wells had been pre-coated with human DLL4-fc fusion protein ([…]) in DMEM plus 2% FBS and 1 μM MG132 (Calbiochem). Antibodies to generated against a membrane proximal region of the extracellular domain of human Notch1 were added to the cell culture medium, and cells were incubated at 37° C. for five hours. Wells were then aspirated and the cells resuspended in 2×SDS running buffer. Samples were sonicated at room temperature, and then subjected to SDS-PAGE and western blot analysis using an antibody specific for the cleaved Notch1 ICD according to the manufacturer's recommendations (Cell Signaling Technology)."}, "[4]": {"tested_on": "C8 colon tumor cells", "test": "C8 colon tumor xenograft, treatment of established tumors", "assay_type": "in vivo, NOD/SCID mice", "settings": "C8 colon tumors ~210 mm^3 at start, 10 mg/kg i.p. twice a week", "method": "Tumor cells from a patient sample (solid tumor biopsy or pleural effusion) that have been passaged as a xenograft in mice were prepared for repassaging into experimental animals. Tumor tissue was removed, cut up into small pieces, minced completely using sterile blades, and single cell suspensions obtained by enzymatic digestion and mechanical disruption. Dissociated tumor cells were then injected subcutaneously into the mammary fat pads, for breast tumors, or into the flank, for non-breast tumors, of NOD/SCID mice to elicit tumor growth. In certain embodiments, ESA+, CD44+, CD24−/low, Lin− tumorigenic tumor cells are isolated as described in detail above and injected.\nIn certain embodiments, freshly isolated C8 colon tumor cells (225 cells per animal) were implanted subcutaneously into NOD/SCID mice. Following tumor cell injection, animals were monitored for tumor growth. Tumors were allowed to grow for 48 days until they reached an average size of approximately 210 mm^3 and randomized into two groups (n=10 per group). The animals were treated with either control antibody or antibody that binds to the membrane proximal region of the extracellular domain of human Notch1, 52M51, (10 mg/kg) dosed i.p. twice a week. Tumor size was assessed on days 55, 57, and 62."}}, "note": "Entries after “also recorded” stand apart in the source; their conditions may differ."}
{"molecule": "B1", "values": [{"measurement": "Notch1 / antigen binding by ELISA", "setting": "[1]", "result": "most robust binding"}]}
{"molecule": "B2", "values": [{"measurement": "Notch signaling (luciferase activity)", "setting": "[2]", "result": "significantly inhibited Notch signaling"}]}
{"molecule": "B3", "values": [{"measurement": "Notch1 ICD formation after ligand stimulation", "setting": "[3]", "result": "significantly inhibited the generation of ICD; also recorded: reduce ICD formation to background levels"}, {"measurement": "tumor growth compared to control antibody", "setting": "[4]", "result": "statistically significant (p=0.0006) inhibition of tumor growth; also recorded: significantly (p=0.0006) inhibited tumor growth"}]}
